Laboratory results published in the array DNA melting data of Ke et al..

Test: melting temperature; melt of duplexes
Details: sodium 0.0675 M; strand 1 µM

| Substance | Tm [°C] |
| --- | --- |
| CGACGTGCGTGATGTGCTG+CAGCACATCCAGCACGTCG ((((((((..(((((((((+)))))))))..)))))))) | 55.5 |
| CGACGTGCGAAATGTGCTG+CAGCACATGAAGCACGTCG ((((((((...((((((((+))))))))...)))))))) | 59.3 |
| CGACGTGCTCAATGTGCTG+CAGCACATCATGCACGTCG ((((((((...((((((((+))))))))...)))))))) | 49.7 |
| CGACGTGCTGGATGTGCTG+CAGCACATTTAGCACGTCG (((((((((..((((((((+))))))))..))))))))) | 54 |
| CGACGTGCTGCATGTGCTG+CAGCACATGCAGCACGTCG (((((((((((((((((((+))))))))))))))))))) | 67.5 |
| CGACGTGCCATATGTGCTG+CAGCACATTAGGCACGTCG (((((((((..((((((((+))))))))..))))))))) | 55.6 |
| CGACGTGCCGCATGTGCTG+CAGCACATAACGCACGTCG ((((((((...((((((((+))))))))...)))))))) | 48.3 |
| CGACGTGCGGCATGTGCTG+CAGCACATATAGCACGTCG ((((((((...((((((((+))))))))...)))))))) | 54.7 |
| CGACGTGCAAAATGTGCTG+CAGCACATCATGCACGTCG (((((((((..((((((((+))))))))..))))))))) | 49.9 |
| CGACGTGCTCCATGTGCTG+CAGCACATCTAGCACGTCG (((((((((..((((((((+))))))))..))))))))) | 49.5 |
| CGACGTGCATCATGTGCTG+CAGCACATGATGCACGTCG (((((((((((((((((((+))))))))))))))))))) | 64.8 |
| CGACGTGCGGAATGTGCTG+CAGCACATTGAGCACGTCG ((((((((..(((((((((+)))))))))..)))))))) | 56.2 |
| CGACGTGCTGGATGTGCTG+CAGCACATCCAGCACGTCG (((((((((((((((((((+))))))))))))))))))) | 65.5 |
| CGACGTGCTCGATGTGCTG+CAGCACATAATGCACGTCG ((((((((...((((((((+))))))))...)))))))) | 49.7 |
| CGACGTGCTGAATGTGCTG+CAGCACATCTCGCACGTCG ((((((((...((((((((+))))))))...)))))))) | 50 |
| CGACGTGCTGGATGTGCTG+CAGCACATTCCGCACGTCG ((((((((.(.((((((((+)))))))).).)))))))) | 53.9 |
| CGACGTGCATGATGTGCTG+CAGCACATGACGCACGTCG ((((((((.(.((((((((+)))))))).).)))))))) | 46.2 |
| CGACGTGCTTTATGTGCTG+CAGCACATTGCGCACGTCG ((((((((...((((((((+))))))))...)))))))) | 46.4 |
| CGACGTGCGTAATGTGCTG+CAGCACATCCTGCACGTCG ((((((((...((((((((+))))))))...)))))))) | 49.7 |
| CGACGTGCCACATGTGCTG+CAGCACATACGGCACGTCG (((((((((..((((((((+))))))))..))))))))) | 53.4 |
| CGACGTGCACCATGTGCTG+CAGCACATCTCGCACGTCG ((((((((...((((((((+))))))))...)))))))) | 41.8 |
| CGACGTGCCGGATGTGCTG+CAGCACATTTAGCACGTCG ((((((((...((((((((+))))))))...)))))))) | 49.4 |
| CGACGTGCTGAATGTGCTG+CAGCACATACCGCACGTCG ((((((((.(.((((((((+)))))))).).)))))))) | 51.3 |
| CGACGTGCTCCATGTGCTG+CAGCACATGTGGCACGTCG ((((((((..(((((((((+)))))))))..)))))))) | 53.8 |
| CGACGTGCGACATGTGCTG+CAGCACATGCTGCACGTCG ((((((((..(((((((((+)))))))))..)))))))) | 54.7 |
| CGACGTGCCCGATGTGCTG+CAGCACATCGGGCACGTCG (((((((((((((((((((+))))))))))))))))))) | 68.2 |

| Substance | Tm [°C] |
| --- | --- |
| CGACGTGCTCTATGTGCTG+CAGCACATAATGCACGTCG ((((((((..(((((((((+)))))))))..)))))))) | 50.4 |
| CGACGTGCCACATGTGCTG+CAGCACATAGTGCACGTCG ((((((((...((((((((+))))))))...)))))))) | 46.9 |
| CGACGTGCTTCATGTGCTG+CAGCACATCTTGCACGTCG ((((((((...((((((((+))))))))...)))))))) | 48.3 |
| CGACGTGCGGAATGTGCTG+CAGCACATGCCGCACGTCG ((((((((((.((((((((+)))))))).)))))))))) | 62.1 |
| CGACGTGCGAAATGTGCTG+CAGCACATGGAGCACGTCG ((((((((...((((((((+))))))))...)))))))) | 60.7 |
| CGACGTGCCCCATGTGCTG+CAGCACATTTCGCACGTCG ((((((((...((((((((+))))))))...)))))))) | 46 |
| CGACGTGCCGTATGTGCTG+CAGCACATCTTGCACGTCG ((((((((...((((((((+))))))))...)))))))) | 48.5 |
| CGACGTGCTTCATGTGCTG+CAGCACATGACGCACGTCG ((((((((.((((((((((+)))))))))).)))))))) | 55.1 |
| CGACGTGCCCGATGTGCTG+CAGCACATACCGCACGTCG ((((((((...((((((((+))))))))...)))))))) | 47.7 |
| CGACGTGCGACATGTGCTG+CAGCACATCAAGCACGTCG ((((((((...((((((((+))))))))...)))))))) | 52.6 |
| CGACGTGCTCCATGTGCTG+CAGCACATGATGCACGTCG ((((((((..(((((((((+)))))))))..)))))))) | 53.7 |
| CGACGTGCGCTATGTGCTG+CAGCACATCCAGCACGTCG ((((((((...((((((((+))))))))...)))))))) | 49.8 |
| CGACGTGCCCAATGTGCTG+CAGCACATTGGGCACGTCG (((((((((((((((((((+))))))))))))))))))) | 66 |
| CGACGTGCACCATGTGCTG+CAGCACATGATGCACGTCG (((((((((.(((((((((+))))))))).))))))))) | 56.5 |
| CGACGTGCTATATGTGCTG+CAGCACATTTAGCACGTCG ((((((((((.((((((((+)))))))).)))))))))) | 55.3 |
| CGACGTGCCCCATGTGCTG+CAGCACATTCTGCACGTCG ((((((((...((((((((+))))))))...)))))))) | 46.9 |
| CGACGTGCTGCATGTGCTG+CAGCACATTGTGCACGTCG ((((((((...((((((((+))))))))...)))))))) | 45.5 |
| CGACGTGCACTATGTGCTG+CAGCACATTCCGCACGTCG ((((((((...((((((((+))))))))...)))))))) | 42.2 |
| CGACGTGCGAGATGTGCTG+CAGCACATGATGCACGTCG ((((((((...((((((((+))))))))...)))))))) | 53.2 |
| CGACGTGCCCTATGTGCTG+CAGCACATATTGCACGTCG ((((((((..(((((((((+)))))))))..)))))))) | 48.9 |
| CGACGTGCGGAATGTGCTG+CAGCACATGGAGCACGTCG ((((((((...((((((((+))))))))...)))))))) | 62.8 |
| CGACGTGCTCGATGTGCTG+CAGCACATTAGGCACGTCG ((((((((...((((((((+))))))))...)))))))) | 50.9 |
| CGACGTGCACCATGTGCTG+CAGCACATCAGGCACGTCG ((((((((...((((((((+))))))))...)))))))) | 42.9 |
| CGACGTGCCAGATGTGCTG+CAGCACATGTGGCACGTCG ((((((((((.((((((((+)))))))).)))))))))) | 60 |
| CGACGTGCCGGATGTGCTG+CAGCACATCCGGCACGTCG (((((((((((((((((((+))))))))))))))))))) | 68.2 |
| CGACGTGCGCTATGTGCTG+CAGCACATAGAGCACGTCG ((((((((.((((((((((+)))))))))).)))))))) | 58.7 |
